How the values were obtained:
G3 [1] = assay: SPR (Biacore); without IL-10Rα
G3 (+Rα) = assay: SPR (Biacore); pre-bound to IL-10Rα
A11 (+Rα) = A11 (+Rα) (UniProt Q13651 22-235); assay: SPR (Biacore); pre-bound to IL-10Rα
B11 (+Rα) = B11 (+Rα) (UniProt Q13651 22-235); assay: SPR (Biacore); pre-bound to IL-10Rα
R5A11 (+Rα) = R5A11 (+Rα) (UniProt Q13651 22-235); assay: SPR (Biacore); pre-bound to IL-10Rα
R5A11 = assay: SPR (Biacore); monomer, without IL-10Rα
B11 = assay: SPR (Biacore); monomer, without IL-10Rα
G3 [2] = assay: SPR (Biacore); monomer, without IL-10Rα
A11 = assay: SPR (Biacore); monomer, without IL-10Rα

B1: IL-10Rβ (receptor)
chain: MVPPPENVRMNSVNFKNILQWESPAFAKGNLTFTAQYLSYRIFQDKCMNTTLTECDFSSLSKYGDHTLRVRAEFADEHSDWVNITFCPVDDTIIGPPGMQVEVLADSLHMRFLAPKIENEYETWTMKNVYNSWTYNVQYWKNGTDEKFQITPQYDFEVLRNLEPWTTYCVQVRGFLPDRNKAGEWSEPVCEQTTHDETVPSLNDIFEAQKIEWHWHHHHHH
modifications: biotinylated with BirA ligase on the biotin acceptor peptide
**Q.** With B1 as the binder, how does the Kd (G3 [1]) read?
**A.** 2400 nM

**Q.** And the Kd (G3 (+Rα))?
**A.** 8 nM

**Q.** And the Kd (A11 (+Rα))?
**A.** 23 nM

**Q.** What about the Kd (B11 (+Rα)) of the same binder?
**A.** 65 nM

**Q.** What about the Kd (R5A11 (+Rα)) of the same binder?
**A.** 100 nM

**Q.** What about the Kd (R5A11) of the same binder?
**A.** 8900 nM

**Q.** And the Kd (B11)?
**A.** 9400 nM

**Q.** What about the Kd (G3 [2]) of the same binder?
**A.** 2400 nM

**Q.** And the Kd (A11)?
**A.** 2400 nM

Reference: patent publication US20230203117A1 (published 2023)
